In patent US20250257130A1 (NONA BIOSCIENCES SUZHOU, published 2025):

B1: PR000374 (antibody, human IgG1, kappa, V domains shown)
VH: EVQLVESGGGLVQPGRSLRLSCTASGSDINDYPITWVRQAPGQGLEWIGFINSGGSTWYASWVKGRFTISRDDSKSIAYLQMNSLKTEDTAVYYCARGYSTYYRDFNIWGQGTLVTVSS
VL: DIQMTQSPSSLSASVGDRVTINCQASQSIDSNLAWFQQKPGQPPKLLIYRASNLASGVPDRFSGSGSGTDFTLTISSLEAEDVATYYCLGGVGAVSYRTSFGGGTKVEIKR
notes: positive control; also called Bench marker 1
B2: PR303191 (antibody, human IgG1, V domains shown)
VH: EVQLLESGGGLVQPGGSLRLSCAASGFIFGSYAMSWVRQAPGKGLEWVSGISGTGGNTYYADSVKGRFTISRDNSKNTLYLQMNSLRAEDTAVYFCERGITIHGVVIIPPDYRGQGTLVTVSS
notes: HCAb (heavy chain-only, human IgG1 Fc), no light chain
B3: PR303125 (antibody, human IgG1, V domains shown)
VH: EVQLLESGGGLVQPGGSLRLSCAASGFTFSSHAMSWVRQAPGKGLEWVSAISGSGDSTHYAASVKGRFTISRDNSKNTLYLQMNSLRAEDTAVYYCETLLRFLESLGNDGFKIWGQGTMVTVSS
notes: as for B2

Legend:
[1] = biological target: T1, Human ROR1-ECD-his (Acro Biosystems RO1-H522y) (human, UniProt Q01973 30-406); assay: BLI in-tandem competition; competitor: PR303201
T1 construct: extracellular domain; bought protein; also called hROR1-ECD-his; hu-ROR1-ECD-his
T1 sequence (Q01973 30-406): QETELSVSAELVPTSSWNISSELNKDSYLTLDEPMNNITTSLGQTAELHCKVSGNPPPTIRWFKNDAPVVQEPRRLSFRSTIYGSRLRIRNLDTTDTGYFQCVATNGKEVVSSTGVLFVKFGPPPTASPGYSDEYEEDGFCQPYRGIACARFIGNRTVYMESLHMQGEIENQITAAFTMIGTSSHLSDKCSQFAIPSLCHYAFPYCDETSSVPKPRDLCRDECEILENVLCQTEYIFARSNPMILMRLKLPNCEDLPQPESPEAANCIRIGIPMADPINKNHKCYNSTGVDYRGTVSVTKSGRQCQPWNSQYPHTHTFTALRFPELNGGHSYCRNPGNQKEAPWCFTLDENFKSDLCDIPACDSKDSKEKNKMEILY
From the text: (§1) To determine if anti-ROR1 antibodies bind to human ROR1 on different or approximate binding epitopes, the ForteBio Octet® RED96e platform was used to perform epitope competition experiments on the anti-ROR1 antibodies. Human ROR1 protein (Acrobiosystems, #RO1-H522y) was biotinylated and then captured onto SA biosensors (ForteBio, #18-5020) to reach loading level of 0.3-0.4 nm. The in-tandem competition assay format was applied and it contains two association steps. Firstly, the antigen-loaded biosensors bind to each antibody (a.k.a, First antibody, 1st Ab) with a saturating concentration of 200 nM for 180 seconds to reach equilibrium and then secondly bind to the competing antibodies (a.k.a, Second antibody, 2nd Ab) of 200 nM for 180 seconds. The second binding signals were recorded as the 100% signal of each antibody when the first antibodies were replaced by kinetics buffer. All the binding data were analyzed using ForteBio Data Analysis 11.0 software. The inhibition rate is calculated by the following formula: […]

[2] = biological target: T2, cynomolgus ROR1 on CHO-K1-cynoROR1 cells (cynomolgus monkey, UniProt A0A2K5WTX7 30-937); assay: flow cytometry on CHOK1-cynoROR1 cells, MFI (Mean) [bottom panel, letter not given]
T2 construct: whole, on cells
Description: (§2) Binding of recombinant anti-ROR1 antibodies to human or cynomolgus ROR1-overexpressing cells was tested by flow cytometry. In this example, ROR1-expressing cell lines are HEK293T cell lines that had been transfected to express human ROR1 on the surface (HEK293T-hu ROR1, KYINNO BIOTECHNOLOGY CO., LTD, Catalog #KC-1018), CHO-K1 cell lines that had been transfected to express cynomolgus ROR1 (CHOK1-cyno ROR1), PANC-1 (ATCC, catalog: CRL-1469) or A549 cell lines (Shanghai Institute of Biochemistry and Cell Biology, Chinese Academy of Sciences).
(§3) In brief, anti-ROR1 antibodies were serially diluted in staining buffer (PBS containing 2% FBS). Antibody solution was incubated with 1×10⁵ cells at 4° C. for 1 hour. […] After 1-hour incubation at 4° C., cells were washed twice with staining buffer and subjected to flow cytometry. PR000374 (Bench marker 1) and non-relevant IgG isotype control (Crownbio) were used as positive and negative controls, respectively.

[3] = biological target: T1, Human ROR1-ECD-his (Acro Biosystems …); assay: BLI in-tandem, row = 1st Ab; competitor (2nd Ab): PR007424
From the text: as §1

[4] = biological target: T2, cynomolgus ROR1 on CHO-K1-cynoROR1 cells; assay: flow cytometry on CHOK1-cynoROR1 cells, MFI (APC-A Median) [top panel]
[5] = biological target: T1, Human ROR1-ECD-his (Acro Biosystems …); assay: BLI in-tandem competition; competitor: PR303145
From the text: as §1

[6] = biological target: T2, cynomolgus ROR1 on CHO-K1-cynoROR1 cells; assay: flow cytometry on CHOK1-cynoROR1 cells, MFI (APC-A Median) [middle panel, letter not given]
Description: as §2, §3

[7] = biological target: T3, human ROR1 on cells (HEK293T-hROR1, PANC-1, A549) (human, UniProt Q01973 30-937); assay: flow cytometry on PANC-1 cells, MFI (FITC-A Median)
T3 construct: whole, on cells; one molecule for the three cell lines; also called huROR1; cell surface ROR1
T3 sequence (Q01973 30-937): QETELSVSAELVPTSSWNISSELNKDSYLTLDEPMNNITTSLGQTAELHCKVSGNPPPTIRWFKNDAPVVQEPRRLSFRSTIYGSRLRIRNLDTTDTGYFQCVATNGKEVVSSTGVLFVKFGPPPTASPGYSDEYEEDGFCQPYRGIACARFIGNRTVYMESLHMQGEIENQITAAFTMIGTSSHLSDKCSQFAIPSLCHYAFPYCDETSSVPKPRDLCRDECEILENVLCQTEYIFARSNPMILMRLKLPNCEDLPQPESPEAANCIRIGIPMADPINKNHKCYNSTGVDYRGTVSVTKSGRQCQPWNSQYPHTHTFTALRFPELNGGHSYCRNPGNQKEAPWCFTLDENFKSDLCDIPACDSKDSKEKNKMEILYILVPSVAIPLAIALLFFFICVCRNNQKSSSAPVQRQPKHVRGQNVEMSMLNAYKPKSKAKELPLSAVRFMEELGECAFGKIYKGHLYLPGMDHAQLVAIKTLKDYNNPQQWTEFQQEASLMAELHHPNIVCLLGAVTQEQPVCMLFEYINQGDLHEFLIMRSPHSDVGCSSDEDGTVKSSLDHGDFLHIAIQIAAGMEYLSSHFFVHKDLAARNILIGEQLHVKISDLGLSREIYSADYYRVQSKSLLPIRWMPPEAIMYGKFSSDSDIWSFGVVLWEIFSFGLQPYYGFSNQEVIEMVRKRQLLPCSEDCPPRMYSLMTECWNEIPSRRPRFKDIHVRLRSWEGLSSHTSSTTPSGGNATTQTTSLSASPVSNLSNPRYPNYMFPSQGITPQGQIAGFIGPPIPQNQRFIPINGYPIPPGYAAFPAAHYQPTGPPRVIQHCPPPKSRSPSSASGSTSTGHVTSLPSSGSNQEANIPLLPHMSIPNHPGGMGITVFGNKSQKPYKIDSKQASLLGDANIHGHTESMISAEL
Description: as §2, §3

[8] = biological target: T1, Human ROR1-ECD-his (Acro Biosystems …); assay: BLI in-tandem, row = 1st Ab; competitor (2nd Ab): PR005338
From the text: as §1

[9] = biological target: T1, Human ROR1-ECD-his (Acro Biosystems …); assay: BLI in-tandem competition; competitor: PR000374
From the text: as §1

[10] = biological target: T3, human ROR1 on cells (HEK293T-hROR1, …); assay: flow cytometry on A549 cells, MFI (Mean)
Description: as §2, §3

[11] = biological target: T1, Human ROR1-ECD-his (Acro Biosystems …); assay: BLI in-tandem, row = 1st Ab; competitor (2nd Ab): PR007417
From the text: as §1

[12] = biological target: T1, Human ROR1-ECD-his (Acro Biosystems …); assay: BLI in-tandem competition; competitor: PR303199
From the text: as §1

[13] = biological target: T1, Human ROR1-ECD-his (Acro Biosystems …); assay: BLI in-tandem competition; competitor: PR303155
From the text: as §1

[14] = biological target: T3, human ROR1 on cells (HEK293T-hROR1, …); assay: flow cytometry, A549 cells
Description: as §3

[15] = biological target: T1, Human ROR1-ECD-his (Acro Biosystems …); assay: BLI, ROR1-His on HIS1K sensor, antibody in solution
Summary of the method: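 His-tagged ROR1 (20 nM) captured on HIS1K biosensors; serially diluted antibodies in kinetics buffer as analyte. Association and dissociation rate constants measured by Octet biolayer interferometry, sensors regenerated with 10 mM glycine-HCl pH 1.5 between cycles.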

Binder | Inhibition (%) [1] [%] | EC50 (read off the curve) [2] [µg/mL] | Inhibition (%) [3] [%] | EC50 (read off the curve) [4] [nM] | Inhibition (%) [5] [%] | EC50 (read off the curve) [6] [nM] | EC50 (read off the curve) [7] [nM] | Inhibition (%) [8] [%] | Inhibition (%) [9] [%] | EC50 (read off the curve) [10] [µg/mL] | Inhibition (%) [11] [%] | Inhibition (%) [12] [%] | Inhibition (%) [13] [%] | EC50 [14] [µg/mL] | MAX(MFI) [14] [MFI] | Kd [15] [nM] | koff [15] [s⁻¹] | kon [15] [M⁻¹ s⁻¹]
B1 | -63 | ~0.3 | -8.53 | ~5 | -61 | ~4 | ~8 | -7.76 | 109 | ~0.6 | -10.5 | -61 | -67 | 0.61 | 695000 | – | – | –
B2 | 57 | ~0.03 | – | – | -70 | – | – | – | -38 | – | – | -57 | -62 | 0.01 | 650000 | 0.0395 | 0.000115 | 2.9e+06
B3 | 86 | ~0.2 | – | – | -41 | – | – | – | -24 | ~0.2 | – | -48 | -62 | 0.16 | 668000 | < 0.001 | < 1e-07 | 165000
